Assay results published in EP2373335B1 (Eli Lilly and Company, dated 2016).
Residue numbers refer to the chain shown, from its start. Blank lines part the entries; values can stand above or below the molecule they belong to.

Assays:
human ferroportin 1 [1] = target: T1, human ferroportin 1 (human, UniProt Q9NP59 1-571); assay: cell-based or functional assay
T1 sequence: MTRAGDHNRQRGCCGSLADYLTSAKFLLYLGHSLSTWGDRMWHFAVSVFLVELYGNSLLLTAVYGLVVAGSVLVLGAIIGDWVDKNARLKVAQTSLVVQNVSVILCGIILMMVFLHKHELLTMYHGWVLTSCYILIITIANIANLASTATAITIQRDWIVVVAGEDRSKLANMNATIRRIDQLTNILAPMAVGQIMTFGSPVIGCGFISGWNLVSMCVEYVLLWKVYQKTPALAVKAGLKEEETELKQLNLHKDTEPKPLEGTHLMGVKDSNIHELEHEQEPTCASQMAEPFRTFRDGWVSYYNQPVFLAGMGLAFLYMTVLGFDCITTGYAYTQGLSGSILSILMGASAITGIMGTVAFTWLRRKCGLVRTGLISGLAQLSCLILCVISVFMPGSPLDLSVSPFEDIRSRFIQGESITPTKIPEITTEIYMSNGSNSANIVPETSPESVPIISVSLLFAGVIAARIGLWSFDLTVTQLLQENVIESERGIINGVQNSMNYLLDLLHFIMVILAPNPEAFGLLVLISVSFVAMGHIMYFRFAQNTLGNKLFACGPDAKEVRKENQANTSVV

FPN1-GFP [2] = target: T2, FPN1-GFP (human, UniProt Q9NP59 1-571, A GFP reporter is fused to the C terminus of FPN1. Its letters are not given, so it is left out.); assay: cell-based or functional assay
T2 sequence: T1 sequence

FPN1-GFP [3] = target: T2, FPN1-GFP; assay: cell-based or functional assay; remark: listed apart in the source
FPN1-GFP [4] = target: T2, FPN1-GFP; assay: SPR (Biacore T100) at 37 °C; FPN1-GFP captured on rabbit anti-GFP antibody; KD of Fab 1G9 against KD of Fab 34A9
human ferroportin 1 [5] = target: T1, human ferroportin 1; assay: inhibition of 30 nM biotinylated hepcidin binding to FPN/293 cells, ELISA read-out; antibody at 125 nM; mean
human ferroportin 1 [6] = target: T1, human ferroportin 1; assay: inhibition of 30 nM biotinylated hepcidin binding to FPN/293 cells, ELISA read-out; antibody at 500 nM; mean
human ferroportin 1 [7] = target: T1, human ferroportin 1; assay: inhibition of 30 nM biotinylated hepcidin binding to FPN/293 cells, ELISA read-out; antibody at 7.8 nM; mean
human ferroportin 1 [8] = target: T1, human ferroportin 1; assay: inhibition of 30 nM biotinylated hepcidin binding to FPN/293 cells, ELISA read-out; antibody at 2000 nM; mean
human ferroportin 1 [9] = target: T1, human ferroportin 1; assay: inhibition of 30 nM biotinylated hepcidin binding to FPN/293 cells, ELISA read-out; antibody at 31.25 nM; mean

B1: Mab 34A9 (antibody, mouse IgG1, kappa, V domains shown)
VH: QVQLKQSGAELVRPGTSVKVSCKASGYAFTNFLIEWLKQRPGQGLEWIGTINPETGGTKYNEKFRGKATLTADKSSSTAYMQLNSLTSDDSAVYFCVREFFDYWGQGTSLTVSS
VL: ETTVTQSPSYLAASPGETITINCRASKSISKYLAWFQEKPGKTNKLLIYAGSTLHSGIPSRFSGSGSGTDFTLTISSLEPEDFAMYYCQQHNEYPYTFGGGTKLELKR
Percent (%) Inhibition of Mature Human Hepcidin-induced Internalization and Degradation In Vitro; Mab at 7.4 nM (FPN1-GFP [2]): 4.8% | Percent (%) Inhibition of Mature Human Hepcidin-induced Internalization and Degradation In Vitro; Mab at 22 nM (FPN1-GFP [2]): 14.1% | Percent (%) Inhibition of Mature Human Hepcidin-induced Internalization and Degradation In Vitro; Mab at 67 nM (FPN1-GFP [2]): 23.6% | Percent (%) Inhibition of Mature Human Hepcidin-induced Internalization and Degradation In Vitro; Mab at 200 nM (FPN1-GFP [2]): 30.8% | Percent (%) Inhibition of Mature Human Hepcidin-induced Internalization and Degradation In Vitro; Mab at 600 nM (FPN1-GFP [2]): 39% | Relative IC50 (FPN1-GFP [3]): 58.9 nM | Top % Inhibition (hepcidin-25-induced internalization and degradation of FPN1-GFP) (FPN1-GFP [3]): 55.2%

B2: Mab 1G9 (antibody, mouse IgG1, kappa, V domains shown)
VH: B1 VH with N31S, E54R
VL: B1 VL with T53K, Q89F
Percent (%) Inhibition of Mature Human Hepcidin-induced Internalization and Degradation In Vitro; Mab at 7.4 nM (FPN1-GFP [2]): 24.3% | Percent (%) Inhibition of Mature Human Hepcidin-induced Internalization and Degradation In Vitro; Mab at 22 nM (FPN1-GFP [2]): 49.9% | Percent (%) Inhibition of Mature Human Hepcidin-induced Internalization and Degradation In Vitro; Mab at 67 nM (FPN1-GFP [2]): 61.8% | Percent (%) Inhibition of Mature Human Hepcidin-induced Internalization and Degradation In Vitro; Mab at 200 nM (FPN1-GFP [2]): 62.4% | Percent (%) Inhibition of Mature Human Hepcidin-induced Internalization and Degradation In Vitro; Mab at 600 nM (FPN1-GFP [2]): 67.9% | Absolute IC50 (FPN1-GFP [3]): 18.8 nM | Relative IC50 (FPN1-GFP [3]): 9.2 nM | Top % Inhibition (hepcidin-25-induced internalization and degradation of FPN1-GFP) (FPN1-GFP [3]): 69%

B3: Fab 1G9 (Fab, V domains shown)
VH: B1 VH with N31S, E54R
VL: ETTVTQSPSYLAASPGETITINCRASKSISKYLAWFQEKPGKTNKLLIYAGSKLHSGIPSRFSGSGSGTDFTLTISSLEPEDFAMYYCFQHNEYPYTFGGGTKLELK
notes: also called mouse 1G9; mouse Fab 1G9
fold improvement in binding affinity against Fab 34A9 (FPN1-GFP [4]): ~5 fold

B4: Mab 4A10-3 (antibody, human IgG4 S228P, kappa, F234A L235A, V domains shown)
VH: QVQLVQSGAEVKKPGSSVKVSCKASGYAFTSFLIEWVRQAPGQGLEWMGTSNPRTGGRKYKEKFRGRVTITADKSTSTAYMELSSLRSEDTAVYYCAREFFDYWGQGTTVTVSS
VL: DIQMTQSPSSLSASVGDRVTITCRASKSISKYTAWYQQKPGKAPKLLIYAGSKLHWGVPSRFSGSGSGTDFTLTISSLQPEDFATYYCQQHNEYPYTFGGGTKVEIKR
Absolute IC50 (FPN1-GFP [3]): 5.7 nM | Relative IC50 (FPN1-GFP [3]): 4.7 nM | Top % Inhibition (hepcidin-25-induced internalization and degradation of FPN1-GFP) (FPN1-GFP [3]): 85.9% | EC50 (nM); inhibition of hepcidin induced ferritin increase in Caco-2 cells (human ferroportin 1 [1]): 37 nM | % Inhibition (human ferroportin 1 [5]): 59.3% | % Inhibition (human ferroportin 1 [6]): 84.9% | % Inhibition (human ferroportin 1 [7]): 5.4% | % Inhibition (human ferroportin 1 [8]): 95.3% | % Inhibition (human ferroportin 1 [9]): 13.4%

B6: Mab 3D8 (antibody, human IgG4 S228P, kappa, F234A L235A, V domains shown)
VH: B4 VH with R58T
VL: B4 VL with W56S
Percent (%) Inhibition of Mature Human Hepcidin-induced Internalization and Degradation In Vitro; Mab at 7.4 nM (FPN1-GFP [2]): 28.1% | Percent (%) Inhibition of Mature Human Hepcidin-induced Internalization and Degradation In Vitro; Mab at 22 nM (FPN1-GFP [2]): 50.2% | Percent (%) Inhibition of Mature Human Hepcidin-induced Internalization and Degradation In Vitro; Mab at 67 nM (FPN1-GFP [2]): 55.7% | Percent (%) Inhibition of Mature Human Hepcidin-induced Internalization and Degradation In Vitro; Mab at 200 nM (FPN1-GFP [2]): 63.8% | Percent (%) Inhibition of Mature Human Hepcidin-induced Internalization and Degradation In Vitro; Mab at 600 nM (FPN1-GFP [2]): 66.4% | Absolute IC50 (FPN1-GFP [3]): 13.7 nM | Relative IC50 (FPN1-GFP [3]): 10.2 nM | Top % Inhibition (hepcidin-25-induced internalization and degradation of FPN1-GFP) (FPN1-GFP [3]): 86.8% | EC50 (nM); inhibition of hepcidin induced ferritin increase in Caco-2 cells (human ferroportin 1 [1]): 360 nM

The remaining lines, values ahead:

% Inhibition; ferritin in Caco-2 cells with 100 nM hepcidin; 6.25 µg/mL mIgG1 (human ferroportin 1 [1]): 0% | % Inhibition; ferritin in Caco-2 cells with 100 nM hepcidin; 12.5 µg/mL mIgG1 (human ferroportin 1 [1]): 0% | % Inhibition; ferritin in Caco-2 cells with 100 nM hepcidin; 25 µg/mL mIgG1 (human ferroportin 1 [1]): 7.2% | % Inhibition; ferritin in Caco-2 cells with 100 nM hepcidin; 50 µg/mL mIgG1 (human ferroportin 1 [1]): 0% | % Inhibition; ferritin in Caco-2 cells with 100 nM hepcidin; 100 µg/mL mIgG1 (human ferroportin 1 [1]): 3.5% | % Inhibition; ferritin in Caco-2 cells with 100 nM hepcidin; 200 µg/mL mIgG1 (human ferroportin 1 [1]): 11.6% | Ferritin (ng)/ protein (µg); Caco-2 cells with 100 nM hepcidin; 6.25 µg/mL mIgG1 (human ferroportin 1 [1]): 10.4 ng/µg | Ferritin (ng)/ protein (µg); Caco-2 cells with 100 nM hepcidin; 12.5 µg/mL mIgG1 (human ferroportin 1 [1]): 10 ng/µg | Ferritin (ng)/ protein (µg); Caco-2 cells with 100 nM hepcidin; 25 µg/mL mIgG1 (human ferroportin 1 [1]): 9.6 ng/µg | Ferritin (ng)/ protein (µg); Caco-2 cells with 100 nM hepcidin; 50 µg/mL mIgG1 (human ferroportin 1 [1]): 10.1 ng/µg | Ferritin (ng)/ protein (µg); Caco-2 cells with 100 nM hepcidin; 100 µg/mL mIgG1 (human ferroportin 1 [1]): 9.78 ng/µg | Ferritin (ng)/ protein (µg); Caco-2 cells with 100 nM hepcidin; 200 µg/mL mIgG1 (human ferroportin 1 [1]): 9.4 ng/µg
Molecule: Mouse IgG1, a negative control (antibody)

Absolute IC50 (FPN1-GFP [3]): 6.2 nM | Relative IC50 (FPN1-GFP [3]): 4.8 nM | Top % Inhibition (hepcidin-25-induced internalization and degradation of FPN1-GFP) (FPN1-GFP [3]): 81.6% | EC50 (nM); inhibition of hepcidin induced ferritin increase in Caco-2 cells (human ferroportin 1 [1]): 193 nM | % Inhibition (human ferroportin 1 [5]): 76.5% | % Inhibition (human ferroportin 1 [6]): 99.8% | % Inhibition (human ferroportin 1 [7]): -0.1% | % Inhibition (human ferroportin 1 [8]): 85.1% | % Inhibition (human ferroportin 1 [9]): 27.5%
B5: Mab L2.2-4 (antibody, human IgG4 S228P, kappa, F234A L235A, V domains shown)
VH: B4 VH
VL: B4 VL with H55R, W56S

Absolute IC50 (FPN1-GFP [3]): 3.8 nM | Relative IC50 (FPN1-GFP [3]): 3.7 nM | Top % Inhibition (hepcidin-25-induced internalization and degradation of FPN1-GFP) (FPN1-GFP [3]): 92.6% | EC50 (nM); inhibition of hepcidin induced ferritin increase in Caco-2 cells (human ferroportin 1 [1]): 28 nM | % Inhibition (human ferroportin 1 [5]): 88.4% | % Inhibition (human ferroportin 1 [6]): 81.6% | % Inhibition (human ferroportin 1 [7]): 18.7% | % Inhibition (human ferroportin 1 [8]): 79.9% | % Inhibition (human ferroportin 1 [9]): 32.1%
B7: Mab Combi11 (antibody, human IgG4 S228P, kappa, F234A L235A, V domains shown)
VH: B4 VH with G57R, R58T, E62S
VL: B4 VL with L54R
